{
  "source": "patent US20230023414A1",
  "about": "“METHODS AND DEVICES FOR TREATING A DISEASE WITH BIOTHERAPEUTICS” (PROGENITY, INC., priority 2018, published 2023)",
  "key": {"[1]": {"conditions": "cited from earlier work; for Baseline dose: Bioavail.: dose info for non-approved agents from clinical trial information"}, "[2]": {"conditions": "cited from earlier work"}, "[3]": {"assay": "Pharmacokinetics (blood insulin) of regular human insulin (NOVOLIN R) after subcutaneous or intra-jejunal jet delivery in swine", "type": "in vivo, Yorkshire female swine", "conditions": "for Cmax / Tmax: blood insulin", "experimental": "A total of 18 Yorkshire female swine in good health and weighing 60-70 kg each were included in this study. Swine were divided into two groups with 9 animals per group. […] A sham surgical laparotomy was performed. […] The jet delivery device was configured with the single nozzle in an axial orientation.\nSwine were divided into two groups with 9 animals per group. […] In all 18 animals, a laparotomy procedure was performed to expose the abdominal cavity. Animals remained under anesthesia during the entire procedure for the PK/PD study.\nFor the laparotomy in group 02, a small segment of the jejunal mucosa and serosa was exposed by midline laparotomy and the jet delivery device was inserted through antimesenteric incision.\n(§1) Blood samples were kept on wet ice until centrifugation and separation of plasma. […] Glucose was monitored every five (5) minutes during the study by portable glucose analyzer (StatStrip (SS) hospital glucose monitoring system (Nova Biomedical, Waltham, Mass.)). At each time point, approximate 0.1 mL of blood was drawn and immediately placed on a glucose monitoring test strip, and the whole blood glucose concentration was measured by the SS in triplicate.\nThe animals were anesthetized for the entire ECP."}, "[4]": {"tested_on": "blood glucose", "assay": "Euglycemic clamp procedure: blood glucose and dextrose infusion after NOVOLIN R SC or IJ in swine", "type": "in vivo, Yorkshire female swine", "conditions": "for mean blood glucose level: euglycemic clamp, swine", "experimental": "A total of 18 Yorkshire female swine in good health and weighing 60-70 kg each were included in this study. Swine were divided into two groups with 9 animals per group. […] A sham surgical laparotomy was performed. […] The jet delivery device was configured with the single nozzle in an axial orientation. The device was held in place during the laparotomy insertion, and the nozzle outlet was directed to face the jejunal wall to direct the jet of the NOVOLIN® R to the GI tract.\nas §1\nA euglycemic clamp procedure (ECP) was employed to compare pharmacokinetics and pharmacodynamics of regular human Insulin (NOVOLIN® R) delivered subcutaneously (SC) in the neck versus intra-jejunally (IJ) by the jet delivery device in the small intestine. ECP was used to quantify the amount of glucose required to maintain normoglycemia after exogenous bolus of insulin. […] The animals were anesthetized for the entire ECP."}, "[5]": {"conditions": "pig, in vivo; for (AUC)T0-T240 h ± SEM / Tmax: 1.2 mg"}, "[6]": {"conditions": "IJ administration by jet delivery device, swine, Average"}, "[7]": {"conditions": "IJ administration by jet delivery device, swine, individual animals"}, "[8]": {"conditions": "SC administration, swine, Average"}, "[9]": {"conditions": "SC administration, swine, individual animals"}},
  "note": "Values joined by “and” are separate entries in the source; they are usually repeats but may differ in a detail not shown here. Equal values may be shown once. Read-outs that look alike come from different tables or passages of the source. Marks after values point to notes of the source that are not given here.",
  "data": [
    {"compound": "tocilizumab", "values": [
      {"measurement": "Approved Dosing Info: Bio Avail", "setting": "[1]; SC administration", "result": 80, "unit": "%"}
    ]},
    {"compound": "certolizumab pegol", "values": [
      {"measurement": "Approved Dosing Info: Bio Avail", "setting": "[1]; SC administration", "result": 80, "unit": "%"}
    ]},
    {"compound": "dalteparin", "values": [
      {"measurement": "bioavailability by SC injection", "setting": "[1]; SC injection", "result": "approximately 87%"},
      {"measurement": "half-life", "setting": "[1]; in vivo", "result": "3 to 5", "unit": "h"},
      {"measurement": "stability at room temperature", "setting": "[2]", "result": "stable at room temperature"}
    ]},
    {"compound": "secukinumab", "values": [
      {"measurement": "Approved Dosing Info: Bio Avail", "setting": "[1]; SC administration", "result": 73, "unit": "%"}
    ]},
    {"compound": "glucagon (SC)", "values": [
      {"measurement": "Baseline dose: Bioavail.", "setting": "[1]; SC administration", "result": 100.0, "unit": "%"}
    ]},
    {"compound": "natalizumab", "values": [
      {"measurement": "Approved Dosing Info: Bio Avail", "setting": "[1]; IV administration", "result": 100, "unit": "%"}
    ]},
    {"compound": "CC[C@H](C)[C@H](NC(=O)[C@H](CCC(=O)O)NC(=O)[C@H](CO)NC(=O)[C@@H](NC(=O)[C@@H](N)CO)C(C)C)C(=O)N[C@@H](CCC(N)=O)C(=O)N[C@@H](CC(C)C)C(=O)N[C@@H](CCSC)C(=O)N[C@@H](Cc1cnc[nH]1)C(=O)N[C@@H](CC(N)=O)C(=O)N[C@@H](CC(C)C)C(=O)NCC(=O)N[C@@H](CCCCN)C(=O)N[C@@H](Cc1cnc[nH]1)C(=O)N[C@@H](CC(C)C)C(=O)N[C@@H](CC(N)=O)C(=O)N[C@@H](CO)C(=O)N[C@@H](CCSC)C(=O)N[C@@H](CCC(=O)O)C(=O)N[C@@H](CCCN=C(N)N)C(=O)N[C@H](C(=O)N[C@@H](CCC(=O)O)C(=O)N[C@@H](Cc1c[nH]c2ccccc12)C(=O)N[C@@H](CC(C)C)C(=O)N[C@@H](CCCN=C(N)N)C(=O)N[C@@H](CCCCN)C(=O)N[C@@H](CCCCN)C(=O)N[C@@H](CC(C)C)C(=O)N[C@@H](CCC(N)=O)C(=O)N[C@@H](CC(=O)O)C(=O)N[C@H](C(=O)N[C@@H](Cc1cnc[nH]1)C(=O)N[C@@H](CC(N)=O)C(=O)N[C@@H](Cc1ccccc1)C(=O)O)C(C)C)C(C)C", "note": "[teriparatide]", "values": [
      {"measurement": "Approved Dosing Info: Bio Avail", "setting": "[1]; SC administration", "result": 95, "unit": "%"}
    ]},
    {"compound": "golimumab", "values": [
      {"measurement": "Approved Dosing Info: Bio Avail", "setting": "[1]; SC administration", "result": 51, "unit": "%"}
    ]},
    {"compound": "sargramostim", "values": [
      {"measurement": "Approved Dosing Info: Bio Avail", "setting": "[1]; IV administration", "result": 100, "unit": "%"}
    ]},
    {"compound": "alirocumab", "values": [
      {"measurement": "Approved Dosing Info: Bio Avail", "setting": "[1]; SC administration", "result": 85, "unit": "%"}
    ]},
    {"compound": "Novolin® R: regular human insulin (recombinant), aqueous solution 100 units/mL with glycerol, metacresol, zinc chloride, pH 7.4", "values": [
      {"measurement": "blood insulin level", "setting": "[3]; animal 18P18, SC administration group", "result": "significantly higher than the rest of the animals in the group"},
      {"measurement": "Cmax", "setting": "[3]; [6]", "result": 77.40, "unit": "uIU/mL"},
      {"measurement": "Tmax", "setting": "[3]; [6]", "result": 55.63, "unit": "min"},
      {"measurement": "Cmax", "setting": "[3]; [7]", "result": "40.93 uIU/mL and 96.77 uIU/mL and 5.03 uIU/mL and 7.96 uIU/mL and 48.77 uIU/mL and 85.38 uIU/mL and 207.96 uIU/mL and 126.39 uIU/mL"},
      {"measurement": "Tmax", "setting": "[3]; [7]", "result": "20 min and 50 min and 90 min (2×) and 40 min (3×)"},
      {"measurement": "Cmax", "setting": "[3]; [8]", "result": 202.94, "unit": "uIU/mL"},
      {"measurement": "Tmax", "setting": "[3]; [8]", "result": 87.14, "unit": "min"},
      {"measurement": "Cmax", "setting": "[3]; [9]", "result": "451.00 uIU/mL and 60.74 uIU/mL and 354.00 uIU/mL and 356.60 uIU/mL and 65.71 uIU/mL and 59.18 uIU/mL and 73.34 uIU/mL"},
      {"measurement": "Tmax", "setting": "[3]; [9]", "result": "50 min (2×) and 180 min and 105 min and 30 min and 120 min"},
      {"measurement": "time to maximum plasma concentration (Tmax)", "setting": "[3]; jejunum administration group", "result": 55.63, "unit": "min"},
      {"measurement": "time to maximum plasma concentration (Tmax)", "setting": "[3]; subcutaneous administration group", "result": 87.14, "unit": "min"},
      {"measurement": "maximum plasma concentration Cmax, SC group versus IJ group", "setting": "[3]; swine", "result": "higher than that of the IJ administration group"},
      {"measurement": "AUC of blood insulin, SC group versus IJ group", "setting": "[3]; swine, AUC0-420 min", "result": "higher than that of the IJ administration group"},
      {"measurement": "mean dextrose infusion rate, IJ versus SC group", "setting": "[4]; 75 minutes to 420 minutes post-administration", "result": "higher in the SC administration group"},
      {"measurement": "mean blood glucose level", "setting": "[4]; IJ administration group (jet delivery device)", "result": 89.6, "unit": "mg/dL"},
      {"measurement": "mean blood glucose level", "setting": "[4]; SC administration group", "result": 83.5, "unit": "mg/dL"},
      {"measurement": "mean dextrose infusion rate, IJ versus SC group", "setting": "[4]; first 70 minutes after administration", "result": "higher in the IJ administration group"}
    ]},
    {"compound": "denosumab", "values": [
      {"measurement": "Approved Dosing Info: Bio Avail", "setting": "[1]; SC administration", "result": 61, "unit": "%"}
    ]},
    {"compound": "somatropin", "values": [
      {"measurement": "Baseline dose: Bioavail.", "setting": "[1]; SC administration", "result": 80.5, "unit": "%"}
    ]},
    {"compound": "Dulaglutide: long-acting GLP-1 receptor agonist, about 63 kDa; GLP-1 analogue linked to modified human IgG4 Fc; TRULICITY solution 3 mg/mL", "values": [
      {"measurement": "Approved Dosing Info: Bio Avail", "setting": "[1]; SC administration", "result": 65, "unit": "%"},
      {"measurement": "AUCID (±SEM)", "setting": "[5]", "result": "3890.00 ± 94.73", "unit": "ng·h/mL"},
      {"measurement": "Bioavailability relative to SC", "setting": "[5]", "result": "49.11 ± 0.08", "unit": "% ^a"},
      {"measurement": "(AUC)T0-T240 h ± SEM", "setting": "[5]", "result": "4355.86 ± 1094.57 ^a ng · hr/mL"},
      {"measurement": "Tmax", "setting": "[5]", "result": 8, "unit": "h"},
      {"measurement": "Bioavailability relative to IV", "setting": "[5]; iv", "result": 100, "unit": "%"},
      {"measurement": "(AUC)T0-T240 h ± SEM", "setting": "[5]; iv", "result": "16429.33 ± 600.93", "unit": "ng·h/mL"},
      {"measurement": "Tmax", "setting": "[5]; iv", "result": 1, "unit": "h"},
      {"measurement": "Bioavailability relative to SC", "setting": "[5]; sc", "result": 100, "unit": "%"},
      {"measurement": "(AUC)T0-T240 h ± SEM", "setting": "[5]; sc", "result": "8869 ± 887.33", "unit": "ng·h/mL"},
      {"measurement": "Tmax", "setting": "[5]; sc", "result": 6, "unit": "h"}
    ]},
    {"compound": "CC[C@H](C)[C@H](NC(=O)[C@H](Cc1ccccc1)NC(=O)[C@H](CCC(=O)O)NC(=O)[C@H](CCCCNC(=O)COCCOCCNC(=O)COCCOCCNC(=O)CC[C@H](NC(=O)CCCCCCCCCCCCCCCCC(=O)O)C(=O)O)NC(=O)[C@H](C)NC(=O)[C@H](C)NC(=O)[C@H](CCC(N)=O)NC(=O)CNC(=O)[C@H](CCC(=O)O)NC(=O)[C@H](CC(C)C)NC(=O)[C@H](Cc1ccc(O)cc1)NC(=O)[C@H](CO)NC(=O)[C@H](CO)NC(=O)[C@@H](NC(=O)[C@H](CC(=O)O)NC(=O)[C@H](CO)NC(=O)[C@@H](NC(=O)[C@H](Cc1ccccc1)NC(=O)[C@@H](NC(=O)CNC(=O)[C@H](CCC(=O)O)NC(=O)C(C)(C)NC(=O)[C@@H](N)Cc1cnc[nH]1)[C@@H](C)O)[C@@H](C)O)C(C)C)C(=O)N[C@@H](C)C(=O)N[C@@H](Cc1c[nH]c2ccccc12)C(=O)N[C@@H](CC(C)C)C(=O)N[C@H](C(=O)N[C@@H](CCCNC(=N)N)C(=O)NCC(=O)N[C@@H](CCCNC(=N)N)C(=O)NCC(=O)O)C(C)C", "note": "[Semaglutide]", "values": [
      {"measurement": "Approved Dosing Info: Bio Avail", "setting": "[1]; SC administration", "result": 89, "unit": "%"}
    ]},
    {"compound": "etanercept", "values": [
      {"measurement": "Approved Dosing Info: Bio Avail", "setting": "[1]; SC administration", "result": 58, "unit": "%"}
    ]},
    {"compound": "vedolizumab", "values": [
      {"measurement": "Approved Dosing Info: Bio Avail", "setting": "[1]; IV administration", "result": 100, "unit": "%"}
    ]},
    {"compound": "ustekinumab", "values": [
      {"measurement": "Approved Dosing Info: Bio Avail", "setting": "[1]; SC administration", "result": 78, "unit": "%"}
    ]}
  ]
}
